# Experimental data reported in paper PMC2646144, “Crucial Role of the CB3-Region of Collagen IV in PARF-Induced Acute Rheumatic Fever” (PLoS ONE, 2009).
# B1: Cyanogen bromide fragment 3 (CB3) of collagen type IV (domain or fragment)
# chain 1: PGVGEKGEPGKPGPRGKPGKDGDKGEKGSPGFPGEPGYPGLIGRQGPQGEKGEAGPPGPPGIVIGTGPLGEKGERGYPGTPGPRGEPGPKGFPGLPGQPGPPGLPVPGQAGAPGFPGERGEKGDRGFPGTSLPGPSGRDGLPGPPGSPGPPGQPGYTNGIVECQPGPPGDQGPPGIPGQPGFIGEIGEKGQKGESCLICDIDGYRGPPGPQGPPGEIGFPGQPGAKGDRGLPGRDGVAGVPGPQGTPGLIGQPGAKGEPGEFYFDLRLKGDKGDPGFPGQPGM
# chain 2: GFPGLRGYPGLSGEKGSPGQKGSRGLDGYQGPDGPRGPKGEAGDPGPPGLPAYSPHPSLAKGARGDPGFPGAQGEPGSQGEPGDPGLPGPPGLSIGDGDQRRGLPGEM
# chain 3: GPKGFIGDPGIPALYGGPPGPDGKRGPPGPPGLPGPPGPDGFLFGLKGAKGRAGFPGLPGSPGARGPKGWKGDAGECRCTEGDEAIKGLPGLPGPKGFAGINGEPGRKGDRGDPGQHGLPGFPGLKGVPGNIGAPGPKGAKGDSRTITTKGERGQPGVPGVPGM
# modifications: 125I (chloramine T method) in the pull-down, bacterial binding and overlay assays | 125I (chloramine T method) in the pull-down, bacterial binding and overlay assays
# Biological target: T1, GST-M3-protein (recombinant streptococcal M-protein type 3) (S. pyogenes)
# T1 construct: M-protein type 3 (M3-protein) of Streptococcus pyogenes; emm3 amplified from chromosomal DNA of the M3 strain with primers M3-1 (BamHI) and M3-3 (SalI); The GST tag is named on the protein for electron microscopy and the pull-down; also called M3-GST; GST-tagged M-protein type M3; source: E. coli, pGEX6P-1, purified under native conditions; not shown: GST, N-terminal, kept
# Assay: SPR; BIAcore 2000, CIV or CB3 immobilised on CM5 chip by amine coupling, M3-protein injected at 6.25-50 µg/ml, 10 mM HEPES, 100 mM NaCl, pH 7.4; apparent dissociation constants
# Conditions: both partners purified
binder,measurement,value
B1,Kd,60 nM
